# Laboratory results from paper PMC4735815, “Protein unfolding as a switch from self-recognition to high-affinity client binding” (Nature Communications, 2016).
# Target: the molecule itself
# Experiment: cross-linking; in vitro UV crosslinking of purified Hsp33^M172S-BPA variants alone; dimers at ∼70 kDa
protein,measurement,value
"Hsp33^M172SL202BPA (natural protein, p-benzoyl-L-phenylalanine (BPA) at position 202) MIMPQHDQLHRYLFENFAVRGELVTVSETLQQILENHDYPQPVKNVLAELLVATSLLTATLKFDGDITVQLQGDGPMNLAVINGNNNQQMRGVARVQGEIPENADLKTLVGNGYVVITITPSEGERYQGVVGLEGDTLAACLEDYFMRSEQLPTRLFIRTGDVDGKPAAGGSLLQVMPAQNAQQDDFDHLATLTETIKTEEFLTLPANEVLWRLYHEEEVTVYDPQDVEFKCTCSRERCADALKTLPDEEVDSILAEDGEIDMHCDYCGNHYLFNAMDIAEIRNNASPADPQVH",stoichiometry N,2
